Source: FireProtDB

Conditions: Bombyx mori, whole UniProt chain shown; for Tm / unfolding enthalpy (calorimetric) / unfolding enthalpy (van 't Hoff): Thermal, DSC
[1] = pH 3.5, sodium acetate buffer 50 mM
[2] = pH 4, sodium acetate buffer 50 mM
[3] = pH 4.5, sodium acetate buffer 50 mM
[4] = pH 5, sodium acetate buffer 50 mM
[5] = pH 8, 25 °C, GdnHCl, CD, Tris-HCl 50 mM

B1: Lysozyme wild type, P48816 (protein)
chain: MQKLIIFALVVLCVGSEAKTFTRCGLVHELRKHGFEENLMRNWVCLVEHESSRDTSKTNTNRNGSKDYGLFQINDRYWCSKGASPGKDCNVKCSDLLTDDITKAAKCAKKIYKRHRFDAWYGWKNHCQGSLPDISSC
pH 3, glycine-HCl 50 mM
  Tm: 45.2 °C
  unfolding enthalpy (calorimetric): 77.6 kcal/mol
  unfolding enthalpy (van 't Hoff): 80.9 kcal/mol
pH 3.25, glycine-HCl 50 mM
  Tm: 51 °C
  unfolding enthalpy (calorimetric): 81.5 kcal/mol
  unfolding enthalpy (van 't Hoff): 86.7 kcal/mol
[1]
  Tm: 56 °C
  unfolding enthalpy (calorimetric): 88.5 kcal/mol
  unfolding enthalpy (van 't Hoff): 91.4 kcal/mol
[2]
  Tm: 59.3 °C
  unfolding enthalpy (calorimetric): 91.9 kcal/mol
  unfolding enthalpy (van 't Hoff): 92.4 kcal/mol
[3]
  Tm: 62.8 °C
  unfolding enthalpy (calorimetric): 94.1 kcal/mol
  unfolding enthalpy (van 't Hoff): 93.8 kcal/mol
[4]
  Tm: 65.3 °C
  unfolding enthalpy (calorimetric): 99.7 kcal/mol
  unfolding enthalpy (van 't Hoff): 95.1 kcal/mol
[5]
  denaturant m value: 3.4 kcal/mol/M
  denaturant midpoint (higher = more stable): 2.39 M
  unfolding free energy: 8.1 kcal/mol
